The values that follow come from patent publication US20100233095A1 (ADLYFE, published 2010).

For experiment [1], the target named is T1, biotinylated Aβ 42 oligomer (UniProt P05067 672-713, biotin (site not stated)).
T1 construct: domain: Aβ1-42; Captured on streptavidin-coated magnetic beads; also called biotin-labeled soluble Aβ42 target protein oligomers; synthetic biotinylated oligomer
Put plainly: streptavidin bead capture of biotinylated oligomer, SDS-PAGE. On the procedure: Labeled peptide probe (SEQ ID NO:1, 2 μM) and biotinylated target protein (Aβ 42 oligomers, 2 μM) are incubated in PBS for 30 minutes. The mixture is then subjected to a capture step using magnetic beads coated with streptavidin. The beads are washed with PBS to remove unbound material and the captured material is analyzed by SDS-PAGE.

Experiment [2] has as its target T2, Aβ42 oligomer (soluble Aβ42 target protein oligomers) (UniProt P05067 672-713).
T2 construct: domain: Aβ1-42; Soluble oligomeric aggregate; also called synthetic Aβ42 oligomer
Put plainly: G25 size exclusion spin column, fluorescence of the eluant; 2 µM probe, 2 µM oligomer. Here is the method:
Labeled peptide probe (SEQ ID NO:1, 2 μM) and target protein (Aβ oligomers, 2 μM) are incubated together for 90 minutes in Hepes buffer (10 mM, pH 7.0) and then loaded onto a G25 size exclusion column, which has a 5000 Da molecular weight cutoff. The column is subjected to centrifugation at 735×g for 2 minutes. Eluants and column material are analyzed by a TECAN fluorimeter. This method is illustrated in FIG. 14A. Eluant also may be analyzed by SDS-PAGE (not shown).

Experiment [3] addresses T3, Aβ42 Fiber (insoluble Aβ42 target protein fibers) (UniProt P05067 672-713).
T3 construct: domain: Aβ1-42; Insoluble fibrillar aggregate of Aβ42; also called Aβ 1-42 fiber; Aβ42 fibers
Put plainly: centrifugation of insoluble fibers with soluble probe, SDS-PAGE of the pellet, 40% TFE. On the procedure: Aβ42 Fiber (target protein) and peptide probe (SEQ ID NO:1) are incubated for 3 hours in the presence of increasing amounts of trifluoroethanol (TFE). The samples are centrifuged at 17,000×g for 30 minutes, and the pellets are denatured in sample buffer and analyzed by SDS-PAGE. Reference samples (Input) are shown for comparison. In this example, binding of target protein and peptide probe is clearly observed at the 40% TFE condition (compare left and right panels at 40% TFE, where the “peptide” band appears in the left panel but not the right panel).

Experiment [4] has as its target T2, Aβ42 oligomer (soluble Aβ42 target …). Put plainly: pyrene fluorescence, aqueous assay; transition from excimer to self-fluorescence.
For experiment [5], the target named is T4, bovine serum albumin (control substrate) (bovine, UniProt P02769 25-607).
T4 construct: also called BSA
T4 sequence (P02769 25-607 limits assumed): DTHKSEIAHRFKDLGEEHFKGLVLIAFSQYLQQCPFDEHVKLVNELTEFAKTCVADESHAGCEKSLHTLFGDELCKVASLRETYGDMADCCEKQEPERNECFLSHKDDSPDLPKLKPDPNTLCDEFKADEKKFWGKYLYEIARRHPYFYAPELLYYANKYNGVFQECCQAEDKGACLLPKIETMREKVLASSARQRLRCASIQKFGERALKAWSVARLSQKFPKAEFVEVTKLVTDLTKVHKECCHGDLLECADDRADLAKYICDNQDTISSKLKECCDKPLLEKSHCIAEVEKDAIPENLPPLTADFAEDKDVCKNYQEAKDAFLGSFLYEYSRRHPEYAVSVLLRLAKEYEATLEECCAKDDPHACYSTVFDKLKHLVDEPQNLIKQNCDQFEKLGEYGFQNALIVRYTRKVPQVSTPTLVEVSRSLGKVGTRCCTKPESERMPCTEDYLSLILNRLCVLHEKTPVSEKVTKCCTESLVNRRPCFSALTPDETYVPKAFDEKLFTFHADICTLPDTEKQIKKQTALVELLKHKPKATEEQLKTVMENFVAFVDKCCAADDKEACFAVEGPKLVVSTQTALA
Nature of the experiment: pyrene monomer fluorescence of di-pyrene Peptide 22 over time, in water, substrate 0.03-0.3 uM. On the procedure: FIG. 12 illustrates the specificity of Peptide 22 (SEQ ID NO:2) for soluble Aβ oligomers. The first two panels show the dose-dependent increase in pyrene monomer signal when Peptide 22 is incubated with soluble Aβ oligomers prepared by two different methods. The next two panels show no change in fluorescence when Peptide 22 is incubated with Aβ40 monomers and Aβ42 monomers. […] The last two panels show no change in fluorescence when Peptide 22 is incubated with control solutions (BSA or Anhydrase). […] (dotted line=0.3 uM substrate; dashed line=0.1 uM; dashed/dot line=0.03 uM; solid line=p22 alone).
Peptide 22 (100 nM) is incubated in water for 15 hours at room temperature with equimolar concentrations ([…]) of several potential A0 substrates: Aβ42 oligomer (type 1); Aβ42 oligomer (type 2); Aβ 1-42 monomer; Aβ 1-40 monomer; Aβ 1-42 fiber; Aβ 1-40 fiber; bovine serum albumin (control substrate); and carbonic anhydrase (control substrate).

The target of experiment [6] is T5, streptavidin (on magnetic dynabeads) (UniProt P22629 37-163, limits assumed).
T5 construct: Capture reagent; also called streptavidin bead; magnetic streptavidin beads
T5 sequence (P22629 37-163 limits assumed): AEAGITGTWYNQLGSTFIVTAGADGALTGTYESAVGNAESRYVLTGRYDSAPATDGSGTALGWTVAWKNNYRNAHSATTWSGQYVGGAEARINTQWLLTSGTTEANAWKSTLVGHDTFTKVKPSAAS
Nature of the experiment: streptavidin bead pull-down (protocol B) without biotinylated oligomer, SDS-PAGE. On the procedure:
In an alternative assay with Peptide 22 (protocol B, illustrated in FIG. 5A), […] biotinylated Aβ 42 oligomer was incubated with pre-washed streptavidin dynabeads at room temperature for 30 minutes. The complex was then washed two times with PBS buffer, and resuspended in PBS buffer. Equal volumes of bound oligomer and 4 μM labeled peptide probe (SEQ ID NO:2) were then combined, and incubated for 30 minutes at room temperature. Unbound material was then washed away with three PBS washes, followed by the collection of the bead complexes by magnet. The complex was then resuspended in 1×LDS buffer, boiled for 10 minutes, and loaded on 10% Bis-Tris gels.

Experiment [7] addresses T2, Aβ42 oligomer (soluble Aβ42 target …). Put plainly: pyrene fluorescence of di-pyrene Peptide 45 with 0, 0.03, 0.1 and 0.3 µM Aβ42 oligomer; free peptide 9:1.

pyrene = pyrene (fluorescent label); PBA = not defined here

T2 sequence (P05067 672-713 limits assumed): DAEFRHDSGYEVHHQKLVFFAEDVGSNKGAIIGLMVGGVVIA
T1 sequence (P05067 672-713 limits assumed): as above
T3 sequence (P05067 672-713 limits assumed): as above

B1: peptide probe of SEQ ID NO:1 (WT reference sequence, Aβ protein residues 16-35 with added C-terminal Lys) (peptide)
peptide: {PBA}-KLVFFAEDVGSNKGAIIGLMK(PBA)-NH2
modifications: reading uncertain; also: labels are the default, some assays say only 'labeled', centrifugation assay may use unlabeled peptide
notes: Synthetic probe; also called wildtype
On to B1, for which the binding result in experiment [1], in experiment [2] and in experiment [3] was “binds” throughout.
For pyrene-KLVFFAEDVGSNKKAIIELMK(pyrene)-NH2 (also called P22 v.2; Peptide 22 var) [Peptide 22 variation 2 (SEQ ID NO:15)], in experiment [4], the binding result is “binds”.

B2: Peptide 22 (SEQ ID NO:2) (peptide)
peptide: pyrene-KLVFFAEDVGSNKHAIIELMK(pyrene)-NH2
notes: Designed variant of the Aβ 16-35 probe with a salt bridge; also called P22; p22
Consider B2, for which the binding result in experiment [5] is recorded as “no binding (tested: 0.3 uM)”; in experiment [6] it was “no binding (tested: 4 µM)”.
For the molecule pyrene-KLVFFAEDVGSNKRAIIELMK(pyrene)-NH2 (also called P22 v.1; Peptide 22 var) [Peptide 22 variation 1 (SEQ ID NO:14)], the binding result in experiment [4] is reported as “binds”.
For the molecule pyrene-KAAAKLVFFAEDVGSNKHAIIELMK-NH2 (not fully specified (residue 25), also called P45) [Peptide 45 (SEQ ID NO:4)], in experiment [7], the “excimer:monomer fluorescence ratio” value was 20 ratio (x:1).
